B1: Complement factor H (Homo sapiens), P08603 (parent)
chain: MRLLAKIICLMLWAICVAEDCNELPPRRNTEILTGSWSDQTYPEGTQAIYKCRPGYRSLGNVIMVCRKGEWVALNPLRKCQKRPCGHPGDTPFGTFTLTGGNVFEYGVKAVYTCNEGYQLLGEINYRECDTDGWTNDIPICEVVKCLPVTAPENGKIVSSAMEPDREYHFGQAVRFVCNSGYKIEGDEEMHCSDDGFWSKEKPKCVEISCKSPDVINGSPISQKIIYKENERFQYKCNMGYEYSERGDAVCTESGWRPLPSCEEKSCDNPYIPNGDYSPLRIKHRTGDEITYQCRNGFYPATRGNTAKCTSTGWIPAPRCTLKPCDYPDIKHGGLYHENMRRPYFPVAVGKYYSYYCDEHFETPSGSYWDHIHCTQDGWSPAVPCLRKCYFPYLENGYNQNYGRKFVQGKSIDVACHPGYALPKAQTTVTCMENGWSPTPRCIRVKTCSKSSIDIENGFISESQYTYALKEKAKYQCKLGYVTADGETSGSITCGKDGWSAQPTCIKSCDIPVFMNARTKNDFTWFKLNDTLDYECHDGYESNTGSTTGSIVCGYNGWSDLPICYERECELPKIDVHLVPDRKKDQYKVGEVLKFSCKPGFTIVGPNSVQCYHFGLSPDLPICKEQVQSCGPPPELLNGNVKEKTKEEYGHSEVVEYYCNPRFLMKGPNKIQCVDGEWTTLPVCIVEESTCGDIPELEHGWAQLSSPPYYYGDSVEFNCSESFTMIGHRSITCIHGVWTQLPQCVAIDKLKKCKSSNLIILEEHLKNKKEFDHNSNIRYRCRGKEGWIHTVCINGRWDPEVNCSMAQIQLCPPPPQIPNSHNMTTTLNYRDGEKVSVLCQENYLIQEGEEITCKDGRWQSIPLCVEKIPCSQPPQIEHGTINSSRSSQESYAHGTKLSYTCEGGFRISEENETTCYMGKWSSPPQCEGLPCKSPPEISHGVVAHMSDSYQYGEEVTYKCFEGFGIDGPAIAKCLGEKWSHPPSCIKTDCLSLPSFENAIPMGEKKDVYKAGEQVTYTCATYYKMDGASNVTCINSRWTGRPTCRDTSCVNPPTVQNAYIVSRQMSKYPSGERVRYQCRSPYEMFGDEEVMCLNGNWTEPPQCKDSTGKCGPPPPIDNGDITSFPLSVYAPASSVEYQCQNLYQLEGNKRITCRNGQWSEPPKCLHPCVISREIMENYNIALRWTAKQKLYSRTGESVEFVCKRGYRLSSRSHTLRTTCWDGKLEYPTCAKR
partner: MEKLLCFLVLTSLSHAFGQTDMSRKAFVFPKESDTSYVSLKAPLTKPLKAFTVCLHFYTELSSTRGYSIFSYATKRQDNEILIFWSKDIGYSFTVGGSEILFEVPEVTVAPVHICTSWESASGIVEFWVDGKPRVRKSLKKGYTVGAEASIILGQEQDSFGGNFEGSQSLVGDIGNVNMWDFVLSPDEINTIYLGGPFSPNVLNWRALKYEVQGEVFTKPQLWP

Variants of: B1
Details: with crp_human CRP

Variant	effect of a mutation on the interaction
Y402H	decreasing interaction strength

Source: IntAct's records for PubMed 17339482
